# B1: integrin α4 cytosolic tail (Lys968-Asp999) (domain or fragment)
# chain: KAGFFKRQYKSILQEENRRDSWSYINSKSNDD
# notes: Used 15N-labelled or unlabelled in the HSQC experiments; also called α4 CT; full-length α4 CT; source: E. coli BL21(DE3), KSI fusion from inclusion bodies, purified (Ni-NTA, cyanogen bromide cleavage, HPLC); not shown: His6, N-terminal, cleaved; ketosteroid isomerase (KSI), N-terminal, cleaved
# B2: paxillin fragment residues G139-K277 (PaxLD2-LD4) (domain or fragment)
# chain: MGSNLSELDRLLLELNAVQHNPPGFPADEANSSPPLPGALSPLYGVPETNSPLGGKAGPLTKEKPKRNGGRGLEDVRPSVESLLDELESSVPSPVPAITVNQGEMSSPQRVTSTQQQTRISASSATRELDELMASLSDFK
# notes: initiation Met introduced before G139; paxillin residues G139-K277, holding the LD2, LD3 and LD4 repeats; Used 15N-labelled or unlabelled; also called recombinant paxillin (residues G139-K277 encompassing LD2-LD4); source: E. coli BL21(DE3), purified (NTA beads, HPLC)
# B3: paxillin LD3-containing peptide (peptide)
# peptide: VRPSVESLLDELESSVPSPV
# notes: paxillin stretch holding the LD3 repeat; also called peptide-containing LD3; source: synthetic peptide, bought: GL Biochem (Shanghai), further purified by reverse phase HPLC
# B4: paxillin LD4-containing peptide (peptide)
# peptide: ATRELDELMASLSDFKFMAQ
# notes: paxillin stretch holding the LD4 repeat; runs four residues (FMAQ) beyond K277, the end of PaxLD2-LD4; also called peptide-containing LD4; source: synthetic peptide, bought: GL Biochem (Shanghai), further purified by reverse phase HPLC
# Legend:
# Conditions in all cases: both partners purified
# [1] = target: B2; assay: NMR titration; 15N-1H HSQC of 15N-labelled PaxLD2-LD4 (200 µM) without and with unlabelled α4 CT, molar ratios 1:1 and 1:2; 10 mM sodium phosphate, pH 6.5, 298 K
# [2] = target: B1; assay: NMR titration; 15N-1H HSQC of 15N-labelled α4 CT (100 µM) without and with unlabelled PaxLD2-LD4, molar ratios 1:1 and 1:2; 10 mM sodium phosphate, pH 6.5, 298 K
# [3] = target: B1; assay: NMR titration; 15N-1H HSQC of 15N-labelled α4 CT without and with unlabelled synthetic LD-containing peptides, ratio 1:4 (α4 CT:peptides)
binder,measurement,setting,value
B1,binding result,[1],binds
B2,binding result,[2],binds
B3,binding result,[3],binds
B4,binding result,[3],binds

# — paper PMC3561355, “NMR Structure of Integrin α4 Cytosolic Tail and Its Interactions with Paxillin” (PLoS ONE, 2013)
